The results in this text go back to patent US20170305975A1.

For assay [1], the target named is amyloid-β 1-42 fibers (fAβ42) (human) (UniProt P05067). The assay is described as follows: Aβ binding competition assay; ArgC-treated M13 as competitor of Alexa-488 M13.
Assay [2] shares this target. The assay is described as follows: Aβ binding competition assay; ArgC-treated M13 as competitor of Alexa-488 M13; fifth bar, label printed [5 FOLD] (the text speaks of 15 fold).

Chain of amyloid-β 1-42 fibers (fAβ42) (human) (P05067 672-713 limits assumed): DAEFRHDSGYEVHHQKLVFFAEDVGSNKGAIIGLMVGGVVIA

Take “M13Δg3p (M13 phage with g3p removed by ArgC protease)”: the ALEXA LABELED 488 PELLETED was 86.7 in assay [1] and 85.9 in assay [2].
